Test results taken from the supplement of paper PMC9732359.
± gives the uncertainty stated by the source.

Assay: protein stability index of a GFP-peptide fusion (yeast GPS) (PSI 1-4); higher = more stable; sorted into four equal gates, so the index is relative within each strain
Outline: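 Plasmids isolated from each sorting gate were PCR-amplified and Illumina-sequenced, and barcodes assigned the reads to strains. The gates, four of equal size, were set by GFP/Cherry fluorescence ratio on mid-log cultures in leucine-free medium. These cultures were yeast carrying a pooled library of tiled 17-residue yeast protein peptides fused downstream of GFP on a plasmid that also expresses Cherry. The protein stability index is the sum of every gate's read frequency times its gate number.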

| Sequence | protein stability index (doa10∆) | protein stability index (pdr5∆) | protein stability index (san1∆) | protein stability index (ubr1∆) |
| --- | --- | --- | --- | --- |
| VVDTEETATLIMNELYR [SMC3] | 3.02 ± 0.086 | 3.17 ± 0.11 | 2.79 ± 0.1 | 3.03 ± 0.096 |
| ITSDALEGITTTIDSLN [SMC3] | 2.45 ± 0.062 | 2.93 ± 0.084 | 2.9 ± 0.08 | 2.99 ± 0.07 |
| VTLLANVRALYMRLWEI [RMP1] | 1.57 ± 0.21 | – | – | – |
| VQISNIPDIGDLPDTEG [PRP8] | 3.24 ± 0.07 | 3.29 ± 0.059 | 3.2 ± 0.049 | 3.23 ± 0.043 |
| KNLKDTASVEKAEFSKE [YIL149C/MLP2] | 3.07 ± 0.083 | 3.19 ± 0.091 | 3.09 ± 0.1 | 3.24 ± 0.081 |
| KSSAFVIDIGASGCNVT [ARP7] | 1.81 ± 0.039 | 2.46 ± 0.063 | 2.17 ± 0.067 | 2.55 ± 0.045 |
| SASSLVITALKEPPRDR [RPL12A] | 2.83 ± 0.062 | 2.97 ± 0.074 | 2.66 ± 0.071 | 2.22 ± 0.052 |
| YDRHQSSSKQQSRLFIN [SMC4] | – | – | – | 3.31 ± 0.2 |
| DSGRGAPLAKVVFRDPY [RPL2A] | 3.06 ± 0.12 | 2.83 ± 0.13 | 3.03 ± 0.072 | 3.01 ± 0.067 |
| KIHLYEKKLEDYCRILS [YGL172W/NUP49] | 1.54 ± 0.11 | 2.34 ± 0.12 | 2.3 ± 0.13 | 1.78 ± 0.19 |
| LENKENGLLNEISRLKT [SMC2] | 3.31 ± 0.18 | 3.29 ± 0.079 | 3.15 ± 0.094 | 3.18 ± 0.13 |
| QIQQQQQKQQQQQQQHQ [SNF5] | 2.53 ± 0.12 | 2.97 ± 0.14 | 2.93 ± 0.12 | 2.61 ± 0.22 |
| GIHDGHIKKLLHQYYGD [FAS1] | 1.44 ± 0.045 | 1.8 ± 0.051 | 1.85 ± 0.098 | 1.31 ± 0.03 |
| FVKPGTALDAEGAARGT [DIS3] | 3.1 ± 0.13 | 3.4 ± 0.2 | 3.24 ± 0.095 | 3.15 ± 0.097 |
| KIKFDESSKLMTVTKVS [BRR2] | 1.75 ± 0.099 | 1.36 ± 0.078 | 1.5 ± 0.2 | 1.35 ± 0.05 |
| LIQEHDSRKNREQSSND [BRN1] | 3.38 ± 0.078 | 3.38 ± 0.06 | 3.19 ± 0.081 | 3.45 ± 0.094 |
| MSNIVGIEYNRVTNTTS [RPC40] | 3.36 ± 0.22 | 3.33 ± 0.13 | 2.73 ± 0.08 | 2.88 ± 0.096 |
| EEISRLQRDLIQTKEQV [YIL149C/MLP2] | 2.77 ± 0.095 | 2.98 ± 0.15 | 3.13 ± 0.14 | 3.11 ± 0.082 |
| MDETQTRAKIGGLNDPR [RPO21] | 2.8 ± 0.1 | 2.24 ± 0.11 | 2.3 ± 0.1 | 1.85 ± 0.22 |
| LLRNLESKMRQQEAKYR [YDL088C/ASM4] | 1.22 ± 0.058 | 1.61 ± 0.072 | 1.39 ± 0.14 | 1.36 ± 0.059 |
| EEPSRVDPEQEAHNKAL [RPT4] | 3.4 ± 0.16 | 3.31 ± 0.1 | 3.46 ± 0.063 | 3.23 ± 0.11 |
| LPPPEDVAFLKTAYSIY [RPN1] | 2.4 ± 0.06 | 2.36 ± 0.052 | 2.46 ± 0.069 | 2.47 ± 0.053 |
| FVNETPRVIEPVYTAQW [PRP8] | 1.57 ± 0.16 | 2.31 ± 0.15 | 2.19 ± 0.16 | 1.19 ± 0.1 |
| VFYQVTPEDADEEEDDE [RPL22B] | 1.84 ± 0.057 | 2.33 ± 0.068 | 2.63 ± 0.057 | 1.99 ± 0.071 |
| TLEDKFLLLAVNKYGLR [ISW2] | 2.31 ± 0.058 | 2.15 ± 0.058 | 1.9 ± 0.11 | 2.29 ± 0.049 |
| QTLGLESFTEELSNELS [MED1] | 3.29 ± 0.064 | 3.1 ± 0.051 | 3.06 ± 0.05 | 3 ± 0.037 |
| RPKKITGWITQSTPVLL [RPN1] | 2.21 ± 0.048 | 2.11 ± 0.043 | 2.3 ± 0.057 | 2.18 ± 0.035 |

| Sequence | protein stability index (doa10∆) | protein stability index (pdr5∆) | protein stability index (san1∆) | protein stability index (ubr1∆) |
| --- | --- | --- | --- | --- |
| HDADLEVSMNSIFAMGL [RPN1] | 1.85 ± 0.038 | 2.69 ± 0.045 | 2.65 ± 0.047 | 2.4 ± 0.034 |
| PLGVILTFVSVDEELGP [SCL1] | 1.72 ± 0.039 | 1.9 ± 0.037 | 2.67 ± 0.052 | 2.46 ± 0.04 |
| TTIQTEKVRPTPGEVAS [MCD1] | 2.74 ± 0.043 | 2.44 ± 0.041 | 2.8 ± 0.04 | 2.84 ± 0.034 |
| VAQGIMNAGGRNVTIQL [RPN2] | – | 2.61 ± 0.21 | – | – |
| AVDKVISGYKKFSSTSR [RPT1] | 3.46 ± 0.27 | 3.87 ± 0.23 | 3.21 ± 0.16 | 3.74 ± 0.14 |
| DDDDNNESSSNTTVISD [DIS3] | 3.01 ± 0.077 | 3.24 ± 0.081 | 2.97 ± 0.049 | 2.91 ± 0.05 |
| YRNNEPAGFTHKLSNWL [YDL088C/ASM4] | 2.49 ± 0.072 | 3.04 ± 0.058 | 2.7 ± 0.06 | 2.82 ± 0.039 |
| AARHKQHEQGTFEKHDR [RRI2] | 3.02 ± 0.067 | 3.04 ± 0.23 | – | 2.96 ± 0.14 |
| FQDYLTQQAVNLEKNYL [IRR1] | 2.15 ± 0.11 | 2.12 ± 0.11 | 2.02 ± 0.16 | 1.96 ± 0.11 |
| FDLVRNIVKQNEGIDLD [SMC2] | 3.11 ± 0.13 | 3.51 ± 0.12 | 3.24 ± 0.081 | 3.45 ± 0.1 |
| STYRLEDVLSSFYRVEK [SSN2] | 2.09 ± 0.074 | 2.34 ± 0.073 | 1.87 ± 0.1 | 2.48 ± 0.094 |
| NTNPSPLKTQTKNGTPN [GAL11] | 2.91 ± 0.059 | 2.9 ± 0.05 | 2.58 ± 0.049 | 2.94 ± 0.04 |
| PSLKFKPKAVARKSKEE [RPC53] | 2.82 ± 0.12 | 2.65 ± 0.086 | 2.43 ± 0.07 | 2.88 ± 0.077 |
| TTARNDLGVVFARAANG [CSL4] | 1.87 ± 0.056 | 2.02 ± 0.12 | 1.87 ± 0.14 | 2.39 ± 0.048 |
| ISNGTINIQKKLEPKEI [SIR4] | 2.77 ± 0.079 | 2.89 ± 0.075 | 2.37 ± 0.089 | 3 ± 0.1 |
| PTLAGMAQRTLKNKYES [FAS2] | 2.76 ± 0.031 | 2.67 ± 0.027 | 2.63 ± 0.029 | 2.657 ± 0.02 |
| SIVEECDARFDEKTIEE [RPC17] | 2.98 ± 0.14 | 3.05 ± 0.088 | 3.09 ± 0.11 | 2.68 ± 0.21 |
| TLEDALRRIITDLNQDS [GRR1] | 2.01 ± 0.074 | 1.86 ± 0.063 | 2.1 ± 0.067 | 2.4 ± 0.053 |
| TAKRKSRKRKPKSASNT [IRR1] | 2.97 ± 0.12 | 3.21 ± 0.13 | 2.6 ± 0.26 | 3.08 ± 0.055 |
| CILRFLQLPIEDKFLYG [SWI3] | 1.85 ± 0.07 | 1.72 ± 0.085 | 1.18 ± 0.19 | 1.18 ± 0.077 |
| YISAELYAQLRENGLVP [SNU114] | 2.38 ± 0.068 | 2.21 ± 0.071 | 2.48 ± 0.1 | 2.73 ± 0.058 |
| IDEDIGNNVQENELVIT [RMP1] | 3.28 ± 0.17 | – | – | 3.39 ± 0.16 |
| TAAETFKLFNKYRPETA [RPL8A] | 2.8 ± 0.065 | 3 ± 0.059 | 2.64 ± 0.072 | 2.8 ± 0.051 |
| QFVETIVSKSIEMYVQE [RPN2] | 1.51 ± 0.13 | – | 1.05 ± 0.11 | 1.15 ± 0.2 |
| TLLSPKDNGMLIIDGQI [RPO21] | 2.59 ± 0.076 | 2.29 ± 0.078 | 2.81 ± 0.074 | 1.78 ± 0.058 |
| IPVYCFSHPAHQQRMSR [YCG1] | 1.88 ± 0.037 | 2.04 ± 0.044 | 1.93 ± 0.046 | 2.04 ± 0.037 |
| TYQLCVRLRSNVIKTGI [RPN3] | 3.25 ± 0.14 | 3.35 ± 0.14 | 3.27 ± 0.084 | – |
